We go through two molecules from doi:10.1101/2024.10.14.618141 (bioRxiv, 2024).

Assay in all cases: pull-down
For test [1], the target named is PAF1C-YY/AA (PAF1C containing CDC73-YY/AA) (human, UniProt Q6PD62;Q6P1J9;Q8WVC0;Q8N7H5;Q9GZS3, Y290A | Y293A).
Test [2] deals with PAF1 complex (five-subunit PAF1C, WT) (human, UniProt Q6PD62;Q6P1J9;Q8WVC0;Q8N7H5;Q9GZS3).
Test [3] has as its target CDK12/Cyclin K complex, full-length (WT) CDK12 (human, UniProt Q9NYV4;O75909).

CDK12/Cyclin K complex, full-length (WT) CDK12, sequence (Q9NYV4 whole entry, one chain of several): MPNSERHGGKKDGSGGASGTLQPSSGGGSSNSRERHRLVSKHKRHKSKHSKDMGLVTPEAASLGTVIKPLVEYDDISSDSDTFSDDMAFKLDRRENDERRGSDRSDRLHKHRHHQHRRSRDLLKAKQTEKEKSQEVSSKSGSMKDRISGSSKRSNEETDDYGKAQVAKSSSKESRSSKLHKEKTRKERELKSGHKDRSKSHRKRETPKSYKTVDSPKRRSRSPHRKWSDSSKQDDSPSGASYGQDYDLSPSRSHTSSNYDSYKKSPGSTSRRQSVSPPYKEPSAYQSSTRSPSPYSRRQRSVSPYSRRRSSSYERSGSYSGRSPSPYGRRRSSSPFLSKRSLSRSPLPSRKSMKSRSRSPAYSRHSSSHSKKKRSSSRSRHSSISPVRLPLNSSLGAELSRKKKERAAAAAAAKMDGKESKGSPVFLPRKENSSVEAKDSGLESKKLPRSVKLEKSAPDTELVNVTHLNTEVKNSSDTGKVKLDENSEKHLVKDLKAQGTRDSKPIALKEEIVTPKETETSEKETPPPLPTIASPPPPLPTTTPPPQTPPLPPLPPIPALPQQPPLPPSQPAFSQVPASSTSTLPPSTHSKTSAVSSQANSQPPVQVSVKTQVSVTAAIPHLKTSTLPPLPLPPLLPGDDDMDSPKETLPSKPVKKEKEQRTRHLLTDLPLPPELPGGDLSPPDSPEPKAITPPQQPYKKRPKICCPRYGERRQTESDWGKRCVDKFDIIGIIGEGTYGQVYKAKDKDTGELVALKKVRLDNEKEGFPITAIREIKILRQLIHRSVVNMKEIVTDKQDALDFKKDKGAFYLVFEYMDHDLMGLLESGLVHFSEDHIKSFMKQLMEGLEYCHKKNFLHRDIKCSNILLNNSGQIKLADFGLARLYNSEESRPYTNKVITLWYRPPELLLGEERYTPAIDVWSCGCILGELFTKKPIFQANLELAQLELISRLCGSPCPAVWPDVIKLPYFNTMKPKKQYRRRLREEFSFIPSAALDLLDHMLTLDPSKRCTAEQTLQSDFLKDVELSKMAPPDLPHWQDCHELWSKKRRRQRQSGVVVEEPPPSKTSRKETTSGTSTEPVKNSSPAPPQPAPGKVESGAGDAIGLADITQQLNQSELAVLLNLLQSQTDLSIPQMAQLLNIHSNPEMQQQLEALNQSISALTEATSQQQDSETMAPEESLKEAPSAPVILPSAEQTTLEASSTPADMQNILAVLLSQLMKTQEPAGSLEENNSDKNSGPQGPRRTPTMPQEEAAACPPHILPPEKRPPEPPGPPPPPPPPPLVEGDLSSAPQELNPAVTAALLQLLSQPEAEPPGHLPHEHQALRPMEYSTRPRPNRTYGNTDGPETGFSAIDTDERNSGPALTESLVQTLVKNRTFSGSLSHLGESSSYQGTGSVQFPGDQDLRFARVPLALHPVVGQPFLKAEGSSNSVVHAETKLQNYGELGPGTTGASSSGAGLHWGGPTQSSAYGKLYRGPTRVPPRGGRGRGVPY

B1: CDK12(KiD)/Cyclin K complex (complex)
chain 1: not shown
chain 2: MKENKENSSPSVTSANLDHTKPCWYWDKKDLAHTPSQLEGLDPATEARYRREGARFIFDVGTRLGLHYDTLATGIIYFHRFYMFHSFKQFPRYVTGACCLFLAGKVEETPKKCKDIIKTARSLLNDVQFGQFGDDPKEEVMVLERILLQTIKFDLQVEHPYQFLLKYAKQLKGDKNKIQKLVQMAWTFVNDSLCTTLSLQWEPEIIAVAVMYLAGRLCKFEIQEWTSKPMYRRWWEQFVQDVPVDVLEDICHQILDLYSQGKQQMPHHTPHQLQQPPSLQPTPQVPQVQQSQPSQSSEPSQPQQKDPQQPAQQQQPAQQPKKPSPQPSSPRQVKRAVVVSPKEENKAAEPPPPKIPKIETTHPPLPPAHPPPDRKPPLAAALGEAEPPGPVDATDLPKVQIPPPAHPAPVHQPPPLPHRPPPPPPSSYMTGMSTTSSYMSGEGYQSLQSMMKTEGPSYGALPPAYGPPAHLPYHPHVYPPNPPPPPVPPPPASFPPPAIPPPTPGYPPPPPTYNPNFPPPPPRLPPTHAVPPHPPPGLGLPPASYPPPAVPPGGQPPVPPPIPPPGMPPVGGLGRAAWMR
With B1, the binding result in test [1] and in test [2] was “binds” each time.

B2: Flag-GST-RPB1-CTD(1586-1971) (domain or fragment)
chain: GGAMSPSYSPTSPAYEPRSPGGYTPQSPSYSPTSPSYSPTSPSYSPTSPNYSPTSPSYSPTSPSYSPTSPSYSPTSPSYSPTSPSYSPTSPSYSPTSPSYSPTSPSYSPTSPSYSPTSPSYSPTSPSYSPTSPSYSPTSPSYSPTSPSYSPTSPSYSPTSPNYSPTSPNYTPTSPSYSPTSPSYSPTSPNYTPTSPNYSPTSPSYSPTSPSYSPTSPSYSPSSPRYTPQSPTYTPSSPSYSPSSPSYSPTSPKYTPTSPSYSPSSPEYTPTSPKYSPTSPKYSPTSPKYSPTSPTYSPTTPKYSPTSPTYSPTSPVYTPTSPKYSPTSPTYSPTSPKYSPTSPTYSPTSPKGSTYSPTSPGYSPTSPTYSLTSPAISPDDSDEEN
Regarding B2, in test [3], the binding result is given as “binds”.
